Results on 167 variants are retold here after the Human Domainome abundance scans (Beltran et al. 2025).

Sequences and labels used below:
B1: E3 ubiquitin-protein ligase NEDD4-like, residues 539 to 589; numbered along this chain, Q96PU5 (parent)
chain: KTSLNPNDLGPLPPGWEERIHLDGRTFYIDHNSKITQWEDPRLQNPAITGP

± gives the uncertainty stated by the source.

This data set covers variants of B1. Description: abundance fitness (aPCA) (normalised: wild type 0, dead -1); higher = more abundant; growth selection in yeast, the domain comes from the species named. The settings on record: Homo sapiens.
Regarding E39L, the abundance fitness was -0.313 ± 0.057.

Consider E39Q, for which the abundance fitness is -0.362 ± 0.11.

With E39D, the abundance fitness is -0.077 ± 0.063.

For E39I, the abundance fitness was -0.251 ± 0.086.

As for E39G, the abundance fitness was -0.183 ± 0.056.

Take E39K: the abundance fitness is -0.216 ± 0.084.

Consider E39T, for which the abundance fitness is -0.105 ± 0.084.

Regarding E39F, the abundance fitness was -0.45 ± 0.092.

Regarding E39C, the abundance fitness was -0.194 ± 0.086.

As for E39M, the abundance fitness is -0.245 ± 0.059.

Regarding E39A, the abundance fitness was -0.15 ± 0.051.

Consider E39N, for which the abundance fitness was -0.009 ± 0.076.

On to E39H, for which the abundance fitness was -0.153 ± 0.07.

For the variant E39V, the abundance fitness is -0.233 ± 0.051.

Turning to E39S, the abundance fitness is -0.1 ± 0.053.

For the variant E39R, the abundance fitness is -0.208 ± 0.049.

As to E39W, the abundance fitness is -0.456 ± 0.074.

On to Q44E, for which the abundance fitness was 0.074 ± 0.053.

Regarding Q44K, the abundance fitness was determined as 0.11 ± 0.097.

For Q44S, the abundance fitness was -0.054 ± 0.053.

As for Q44H, the abundance fitness was -0.155 ± 0.059.

For Q44I, the abundance fitness was -0.016 ± 0.092.

Turning to Q44G, the abundance fitness was -0.022 ± 0.05.

Q44C: the abundance fitness was -0.15 ± 0.08.

In the case of Q44P, the abundance fitness was -0.135 ± 0.054.

Take Q44F: the abundance fitness was -0.218 ± 0.079.

On to Q44R, for which the abundance fitness was -0.039 ± 0.041.

As for Q44V, the abundance fitness was -0.114 ± 0.05.

In the case of Q44W, the abundance fitness is -0.27 ± 0.068.

In the case of Q44N, the abundance fitness was -0.091 ± 0.046.

For the variant Q44T, the abundance fitness is -0.078 ± 0.064.

Regarding Q44M, the abundance fitness is -0.049 ± 0.083.

Regarding Q44A, the abundance fitness was -0.028 ± 0.072.

For the variant Q44D, the abundance fitness was 0.028 ± 0.082.

As for Q44Y, the abundance fitness was -0.336 ± 0.12.

As for N32M, the abundance fitness was -0.164 ± 0.063.

Regarding N32L, the abundance fitness was -0.181 ± 0.06.

For N32F, the abundance fitness was -0.39 ± 0.095.

Consider N32E, for which the abundance fitness is -0.03 ± 0.047.

N32R: the abundance fitness is -0.044 ± 0.053.

On to N32Q, for which the abundance fitness was -0.18 ± 0.073.

In the case of N32A, the abundance fitness is -0.339 ± 0.073.

In the case of N32P, the abundance fitness is -0.594 ± 0.096.

Consider N32V, for which the abundance fitness is -0.064 ± 0.05.

Regarding N32S, the abundance fitness was -0.086 ± 0.054.

On to N32Y, for which the abundance fitness is -0.24 ± 0.1.

Take N32T: the abundance fitness is -0.035 ± 0.084.

Regarding N32H, the abundance fitness is -0.286 ± 0.079.

In the case of N32K, the abundance fitness is -0.011 ± 0.053.

In the case of N32I, the abundance fitness turned out to be 0.074 ± 0.098.

Regarding N32D, the abundance fitness was -0.118 ± 0.094.

In the case of N32C, the abundance fitness was -0.312 ± 0.066.

In the case of N32W, the abundance fitness is -0.395 ± 0.043.

P46H: the abundance fitness is -0.105 ± 0.096.

Consider P46I, for which the abundance fitness was -0.171 ± 0.07.

For P46G, the abundance fitness was found to be 0.01 ± 0.053.

Turning to P46M, the abundance fitness was 0.084 ± 0.11.

Turning to P46A, the abundance fitness was -0.06 ± 0.048.

Turning to P46F, the abundance fitness was -0.228 ± 0.075.

Consider P46C, for which the abundance fitness is -0.098 ± 0.046.

P46L: the abundance fitness amounted to 0.161 ± 0.065.

As to P46D, the abundance fitness is -0.028 ± 0.086.

In the case of P46K, the abundance fitness came out at 0.028 ± 0.075.

Take P46E: the abundance fitness was -0.39 ± 0.091.

Regarding W38P, the abundance fitness was -0.223 ± 0.054.

On to W38L, for which the abundance fitness was -0.173 ± 0.041.

For W38A, the abundance fitness is -0.014 ± 0.044.

On to W38K, for which the abundance fitness was -0.029 ± 0.059.

As to W38M, the abundance fitness was -0.127 ± 0.046.

For the variant W38D, the abundance fitness was 0.002 ± 0.053.

Take W38Y: the abundance fitness is -0.041 ± 0.047.

W38E: the abundance fitness is 0.068 ± 0.056.

For the variant W38V, the abundance fitness is -0.146 ± 0.041.

On to W38F, for which the abundance fitness was 0.066 ± 0.048.

Take W38N: the abundance fitness was -0.059 ± 0.048.

With W38T, the abundance fitness was 0.058 ± 0.05.

As to W38G, the abundance fitness was -0.249 ± 0.04.

As to W38H, the abundance fitness is -0.121 ± 0.049.

Take W38I: the abundance fitness is -0.162 ± 0.039.

With W38Q, the abundance fitness is -0.07 ± 0.041.

Regarding T26V, the abundance fitness was -0.077 ± 0.046.

Regarding T26W, the abundance fitness is -0.645 ± 0.065.

In the case of T26Y, the abundance fitness is -0.105 ± 0.094.

As to T26S, the abundance fitness is -0.113 ± 0.054.

On to D40E, for which the abundance fitness was -0.587 ± 0.069.

Consider D40C, for which the abundance fitness is -0.639 ± 0.051.

On to D40Q, for which the abundance fitness was -0.878 ± 0.13.

For the variant D40P, the abundance fitness is -0.401 ± 0.056.

As for D40A, the abundance fitness is -0.528 ± 0.052.

Consider D40T, for which the abundance fitness was -0.919 ± 0.11.

For the variant D40F, the abundance fitness is -0.566 ± 0.11.

Regarding D40M, the abundance fitness is -0.639 ± 0.11.

With D40S, the abundance fitness is -0.492 ± 0.058.

As for D40K, the abundance fitness was -0.585 ± 0.1.

In the case of D40G, the abundance fitness is -0.731 ± 0.062.

For D40L, the abundance fitness was -0.654 ± 0.071.

In the case of D40Y, the abundance fitness is -0.53 ± 0.045.

For the variant D40I, the abundance fitness is -0.574 ± 0.13.

With D40H, the abundance fitness is -0.16 ± 0.054.

With D40V, the abundance fitness was -0.706 ± 0.052.

For S33A, the abundance fitness was -0.061 ± 0.047.

Regarding S33T, the abundance fitness turned out to be 0.066 ± 0.061.

S33I: the abundance fitness was -0.42 ± 0.061.

Take S33H: the abundance fitness was determined as 0.098 ± 0.079.

Consider S33G, for which the abundance fitness is -0.344 ± 0.047.

For the variant S33N, the abundance fitness was -0.001 ± 0.075.

In the case of S33L, the abundance fitness was -0.188 ± 0.053.

For the variant S33R, the abundance fitness was 0.056 ± 0.048.

As for S33W, the abundance fitness is -0.802 ± 0.083.

On to S33Q, for which the abundance fitness is -0.188 ± 0.098.

As for S33C, the abundance fitness is -0.153 ± 0.078.

As for S33M, the abundance fitness was -0.279 ± 0.11.

With S33V, the abundance fitness is -0.385 ± 0.044.

On to S33E, for which the abundance fitness is -0.067 ± 0.065.

Consider S33K, for which the abundance fitness came out at 0.05 ± 0.069.

On to S33D, for which the abundance fitness is -0.267 ± 0.077.

As for K34T, the abundance fitness is -0.218 ± 0.078.

Turning to K34F, the abundance fitness was -0.513 ± 0.089.

Turning to K34E, the abundance fitness was -0.251 ± 0.059.

Take K34A: the abundance fitness is -0.176 ± 0.071.

Turning to K34C, the abundance fitness is -0.223 ± 0.053.

With K34W, the abundance fitness is -0.547 ± 0.051.

As for K34N, the abundance fitness is -0.053 ± 0.095.

For K34H, the abundance fitness is -0.087 ± 0.099.

Regarding K34M, the abundance fitness is -0.105 ± 0.083.

Consider K34V, for which the abundance fitness was -0.58 ± 0.049.

In the case of K34D, the abundance fitness was -0.063 ± 0.082.

With K34I, the abundance fitness is -0.875 ± 0.2.

K34P: the abundance fitness is -0.857 ± 0.063.

For K34S, the abundance fitness was -0.197 ± 0.046.

Regarding K34L, the abundance fitness was -0.284 ± 0.053.

With K34R, the abundance fitness is -0.119 ± 0.042.

Consider K34G, for which the abundance fitness is -0.022 ± 0.044.

K34Q: the abundance fitness is 0.076 ± 0.092.

On to K34Y, for which the abundance fitness was -0.39 ± 0.091.

For Y28S, the abundance fitness is -0.399 ± 0.046.

On to Y28F, for which the abundance fitness is -0.347 ± 0.11.

For Y28K, the abundance fitness is -0.332 ± 0.089.

Consider Y28G, for which the abundance fitness is -0.451 ± 0.043.

Take Y28R: the abundance fitness was -0.536 ± 0.061.

On to Y28N, for which the abundance fitness was -0.851 ± 0.067.

Turning to Y28P, the abundance fitness was -0.242 ± 0.065.

As for Y28I, the abundance fitness was -0.273 ± 0.1.

As for Y28L, the abundance fitness is -0.703 ± 0.066.

Y28H: the abundance fitness is -0.636 ± 0.11.

For Y28Q, the abundance fitness is -0.424 ± 0.088.

Turning to Y28D, the abundance fitness was -0.399 ± 0.058.

Regarding Y28T, the abundance fitness is -0.626 ± 0.075.

Take Y28W: the abundance fitness is -0.008 ± 0.063.

With Y28V, the abundance fitness is -0.696 ± 0.054.

For Y28C, the abundance fitness is -0.902 ± 0.13.

For Y28M, the abundance fitness is -0.991 ± 0.12.

Take R42G: the abundance fitness was -0.656 ± 0.046.

Turning to R42L, the abundance fitness is -0.787 ± 0.058.

With R42E, the abundance fitness was -0.752 ± 0.052.

In the case of R42C, the abundance fitness is -0.847 ± 0.12.

Consider R42W, for which the abundance fitness was -1.18 ± 0.087.

Take R42S: the abundance fitness was -0.661 ± 0.053.

As to R42N, the abundance fitness was -0.687 ± 0.22.

R42T: the abundance fitness is -0.71 ± 0.053.

As for R42Y, the abundance fitness is -1.05 ± 0.067.

Consider R42K, for which the abundance fitness was -0.352 ± 0.11.

In the case of R42P, the abundance fitness was -0.474 ± 0.083.

As to R42D, the abundance fitness was -1.15 ± 0.25.

For the variant R42F, the abundance fitness was -1.09 ± 0.19.

As for R42H, the abundance fitness is -0.67 ± 0.096.

With R42M, the abundance fitness was -0.718 ± 0.06.
